Reference: US20140259226

Assays:
[1] = target: T1, 6X His-PYR1 I84Q
T1 chain: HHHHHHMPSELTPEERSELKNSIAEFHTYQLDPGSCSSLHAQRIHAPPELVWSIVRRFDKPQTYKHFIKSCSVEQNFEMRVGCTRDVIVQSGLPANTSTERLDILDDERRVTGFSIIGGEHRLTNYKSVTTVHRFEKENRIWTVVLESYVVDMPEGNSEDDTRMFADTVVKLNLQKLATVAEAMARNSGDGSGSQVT

[2] = target: T2, 6X His-PYR1 F159V
T2 chain: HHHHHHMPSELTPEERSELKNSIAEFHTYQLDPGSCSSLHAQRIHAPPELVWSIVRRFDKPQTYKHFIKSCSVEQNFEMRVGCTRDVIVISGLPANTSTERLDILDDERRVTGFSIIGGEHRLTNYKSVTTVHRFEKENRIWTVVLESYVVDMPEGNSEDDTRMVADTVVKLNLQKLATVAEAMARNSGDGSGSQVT

[3] = target: T3, PYR1^CA4B (V83F, M158I, F159V, K170W), 6xHis fusion
T3 chain: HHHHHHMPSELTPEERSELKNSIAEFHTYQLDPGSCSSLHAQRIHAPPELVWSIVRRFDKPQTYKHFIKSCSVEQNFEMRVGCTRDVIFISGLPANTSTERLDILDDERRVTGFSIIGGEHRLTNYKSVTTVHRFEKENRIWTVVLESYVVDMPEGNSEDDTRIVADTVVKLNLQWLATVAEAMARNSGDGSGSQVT

[4] = target: T4, 6x-His-PYL6, wild type
T4 chain: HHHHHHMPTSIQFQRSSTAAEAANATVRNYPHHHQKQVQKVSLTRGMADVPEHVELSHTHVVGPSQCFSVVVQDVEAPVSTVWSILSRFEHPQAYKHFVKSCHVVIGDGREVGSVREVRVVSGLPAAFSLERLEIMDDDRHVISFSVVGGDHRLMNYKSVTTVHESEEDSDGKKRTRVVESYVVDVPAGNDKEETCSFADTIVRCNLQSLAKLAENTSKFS

[5] = target: T5, PYR1^CA4 (H60P, V83F, F159V, M158I), 6xHis fusion
T5 chain: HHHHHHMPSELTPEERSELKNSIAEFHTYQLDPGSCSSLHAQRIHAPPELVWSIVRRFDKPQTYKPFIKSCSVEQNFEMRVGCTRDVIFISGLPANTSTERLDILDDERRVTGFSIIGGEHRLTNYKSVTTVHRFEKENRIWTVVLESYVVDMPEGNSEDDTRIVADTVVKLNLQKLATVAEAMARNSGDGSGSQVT

[6] = target: T6, PYR1^CA3 (H60P, V83F, F159V), 6xHis fusion
T6 chain: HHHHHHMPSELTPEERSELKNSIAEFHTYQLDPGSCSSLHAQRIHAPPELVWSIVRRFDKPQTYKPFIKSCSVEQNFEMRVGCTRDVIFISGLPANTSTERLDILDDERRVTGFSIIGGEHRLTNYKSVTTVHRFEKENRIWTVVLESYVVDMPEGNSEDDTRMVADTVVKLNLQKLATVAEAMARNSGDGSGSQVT

[7] = target: T7, 6x-His-PYL10, wild type
T7 chain: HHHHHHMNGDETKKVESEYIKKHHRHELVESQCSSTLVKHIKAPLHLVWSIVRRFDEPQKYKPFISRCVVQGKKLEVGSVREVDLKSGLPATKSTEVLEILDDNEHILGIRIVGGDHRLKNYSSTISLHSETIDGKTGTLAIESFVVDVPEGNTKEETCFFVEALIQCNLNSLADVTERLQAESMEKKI

[8] = target: T8, 6X His-PYR1 V83F
T8 chain: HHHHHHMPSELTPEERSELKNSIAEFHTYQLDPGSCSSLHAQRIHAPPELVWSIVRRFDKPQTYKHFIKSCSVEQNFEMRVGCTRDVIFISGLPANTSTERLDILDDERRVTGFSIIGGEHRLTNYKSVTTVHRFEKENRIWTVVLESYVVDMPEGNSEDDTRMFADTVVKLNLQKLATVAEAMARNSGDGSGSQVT

[9] = target: T9, PYR1^CA4C (H60P, A89W, M158I, F159V), 6xHis fusion
T9 chain: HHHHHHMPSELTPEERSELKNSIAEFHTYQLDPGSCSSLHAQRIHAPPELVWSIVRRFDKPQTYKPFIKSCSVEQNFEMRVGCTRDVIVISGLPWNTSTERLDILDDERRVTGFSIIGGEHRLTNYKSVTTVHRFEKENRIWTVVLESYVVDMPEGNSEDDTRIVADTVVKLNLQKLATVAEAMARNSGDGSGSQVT

[10] = target: T10, 6X His-PYR1 K170W
T10 chain: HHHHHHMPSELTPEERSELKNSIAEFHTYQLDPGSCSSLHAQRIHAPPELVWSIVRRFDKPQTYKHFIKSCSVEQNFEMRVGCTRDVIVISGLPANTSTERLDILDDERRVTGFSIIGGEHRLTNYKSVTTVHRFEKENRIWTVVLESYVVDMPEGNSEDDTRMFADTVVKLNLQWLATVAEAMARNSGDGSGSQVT

[11] = target: T11, 6X His-PYR1 H60P
T11 chain: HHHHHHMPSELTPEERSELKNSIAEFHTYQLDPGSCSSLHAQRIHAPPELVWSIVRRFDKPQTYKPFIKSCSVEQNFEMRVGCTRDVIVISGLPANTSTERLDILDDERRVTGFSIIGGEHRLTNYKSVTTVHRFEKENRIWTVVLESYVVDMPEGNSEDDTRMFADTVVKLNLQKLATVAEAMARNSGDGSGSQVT

[12] = target: T12, PYL9^CA4C (A91W, Y160I, F161V), 6xHis fusion
T12 chain: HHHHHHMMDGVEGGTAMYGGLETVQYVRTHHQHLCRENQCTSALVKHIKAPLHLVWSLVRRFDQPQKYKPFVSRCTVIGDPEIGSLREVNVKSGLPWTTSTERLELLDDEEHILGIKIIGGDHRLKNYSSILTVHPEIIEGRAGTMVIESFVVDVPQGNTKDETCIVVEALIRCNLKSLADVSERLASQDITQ

[13] = target: T13, PYL2^CA4C (H65P, A93W, M164I, F165V), 6xHis fusion
T13 chain: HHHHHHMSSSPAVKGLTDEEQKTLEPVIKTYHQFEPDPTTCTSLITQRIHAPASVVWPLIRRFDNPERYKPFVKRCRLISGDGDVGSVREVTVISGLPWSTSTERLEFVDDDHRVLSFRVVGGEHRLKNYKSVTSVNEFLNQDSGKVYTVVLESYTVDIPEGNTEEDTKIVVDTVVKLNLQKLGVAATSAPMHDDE

[14] = target: T14, 6X His-PYR1 T162F
T14 chain: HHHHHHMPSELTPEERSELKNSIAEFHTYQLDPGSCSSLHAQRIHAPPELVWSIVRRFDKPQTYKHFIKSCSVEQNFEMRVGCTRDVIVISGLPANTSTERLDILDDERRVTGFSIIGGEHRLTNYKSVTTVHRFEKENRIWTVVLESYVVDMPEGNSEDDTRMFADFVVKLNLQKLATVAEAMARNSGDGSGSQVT

[15] = target: T15, 6X His-PYR1 M158I
T15 chain: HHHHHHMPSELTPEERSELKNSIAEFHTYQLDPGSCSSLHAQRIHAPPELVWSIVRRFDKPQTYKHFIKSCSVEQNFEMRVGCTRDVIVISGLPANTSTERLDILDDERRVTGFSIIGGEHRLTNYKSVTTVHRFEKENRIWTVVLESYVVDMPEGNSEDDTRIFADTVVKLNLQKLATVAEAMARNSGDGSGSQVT

[16] = target: T16, 6X His-PYR1 A89W
T16 chain: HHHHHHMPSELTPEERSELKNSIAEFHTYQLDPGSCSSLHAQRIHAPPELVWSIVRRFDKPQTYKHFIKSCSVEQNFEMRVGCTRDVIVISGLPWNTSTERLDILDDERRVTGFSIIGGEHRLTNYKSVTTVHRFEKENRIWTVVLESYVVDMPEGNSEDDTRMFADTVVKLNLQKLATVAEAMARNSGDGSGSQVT

B1: GST-HAB1 (protein)
chain: SPVEITQLKNVTDAADLLSDSENQSFCNGGTECTMEDVSELEEVGEQDLLKTLSDTRSGSSNVFDEDDVLSVVEDNSAVISEGLLVVDAGSELSLSNTAMEIDNGRVLATAIIVGESSIEQVPTAEVLIAGVNQDTNTSEVVIRLPDENSNHLVKGRSVYELDCIPLWGTVSIQGNRSEMEDAFAVSPHFLKLPIKMLMGDHEGMSPSLTHLTGHFFGVYDGHGGHKVADYCRDRLHFALAEEIERIKDELCKRNTGEGRQVQWDKVFTSCFLTVDGEIEGKIGRAVVGSSDKVLEAVASETVGSTAVVALVCSSHIVVSNCGDSRAVLFRGKEAMPLSVDHKPDREDEYARIENAGGKVIQWQGARVFGVLAMSRSIGDRYLKPYVIPEPEVTFMPRSREDECLILASDGLWDVMNNQEVCEIARRRILMWHKKNGAPPLAERGKGIDPACQAAADYLSMLALQKGSKDNISIIVIDLKAQRKFKTRT
- HAB1 phosphatase (PP2C) activity, % of control, pNPP hydrolysis, in the absence of ABA [1]: each of the activating mutants increased basal receptor activity in comparison to wild-type PYR1
- HAB1 phosphatase (PP2C) activity, % of control, pNPP hydrolysis, in the absence of ABA [2]: each of the activating mutants increased basal receptor activity in comparison to wild-type PYR1
- PP2C activity, % of control, pNPP hydrolysis, in the absence of ABA [3]: both the PYR1^CA4B and PYR1^CAc mutants dramatically increased basal PYR1 activity relative to wild-type PYR1
- PP2C activity, % of control, pNPP hydrolysis, with 0 or 10 µM ABA [4]: PYL6 and PYL10, which have high basal activities ..., are not full CA receptors
- PP2C activity, % of control, pNPP hydrolysis, in the absence of ABA [5]: both the triple and quadruple mutants dramatically increased basal PYR1 activity relative to wild-type PYR1
- PP2C activity, % of control, pNPP hydrolysis, in the absence of ABA [6]: both the triple and quadruple mutants dramatically increased basal PYR1 activity relative to wild-type PYR1
- PP2C activity, % of control, pNPP hydrolysis, with 0 or 10 µM ABA [7]: PYL6 and PYL10, which have high basal activities ..., are not full CA receptors
- HAB1 phosphatase (PP2C) activity, % of control, pNPP hydrolysis, in the absence of ABA [8]: each of the activating mutants increased basal receptor activity in comparison to wild-type PYR1
- PP2C activity, % of control, pNPP hydrolysis, in the absence of ABA [9]: both the PYR1^CA4B and PYR1^CAc mutants dramatically increased basal PYR1 activity relative to wild-type PYR1
- HAB1 phosphatase (PP2C) activity, % of control, pNPP hydrolysis, in the absence of ABA [10]: each of the activating mutants increased basal receptor activity in comparison to wild-type PYR1
- HAB1 phosphatase (PP2C) activity, % of control, pNPP hydrolysis, in the absence of ABA [11]: each of the activating mutants increased basal receptor activity in comparison to wild-type PYR1
- PP2C activity, % of control, pNPP hydrolysis, in the absence of ABA [12]: the mutant proteins were highly activated in the absence of ABA in comparison to wild-type PYL2 or PYL9
- PP2C activity, % of control, pNPP hydrolysis, in the absence of ABA [13]: the mutant proteins were highly activated in the absence of ABA in comparison to wild-type PYL2 or PYL9
- HAB1 phosphatase (PP2C) activity, % of control, pNPP hydrolysis, in the absence of ABA [14]: each of the activating mutants increased basal receptor activity in comparison to wild-type PYR1
- HAB1 phosphatase (PP2C) activity, % of control, pNPP hydrolysis, in the absence of ABA [15]: each of the activating mutants increased basal receptor activity in comparison to wild-type PYR1
- HAB1 phosphatase (PP2C) activity, % of control, pNPP hydrolysis, in the absence of ABA [16]: each of the activating mutants increased basal receptor activity in comparison to wild-type PYR1
